Assay results from patent publication US20160347834A1 (ZENOAQ RESOURCE, published 2016).

Experiments:
[1] = target: T1, human podoplanin on glioblastoma cells LN319 (human, UniProt Q86YL7 23-162); assay: flow cytometry on LN319 cells, culture supernatant
T1 construct: Podoplanin of the LN319 cell line itself; also called LN 319 cells; podoplanin expression strain
T1 chain: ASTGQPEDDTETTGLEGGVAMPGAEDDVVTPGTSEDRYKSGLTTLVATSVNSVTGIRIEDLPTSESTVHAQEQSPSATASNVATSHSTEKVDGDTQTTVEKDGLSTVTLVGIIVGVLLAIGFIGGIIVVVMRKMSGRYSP

[2] = target: T2, human podoplanin on renal epithelial cells HEK-293T (human, UniProt Q86YL7 23-162); assay: flow cytometry on HEK-293T cells, antibody 1 µg/ml
T2 construct: Podoplanin of the cell line itself; also called normal renal epithelial cells
T2 chain: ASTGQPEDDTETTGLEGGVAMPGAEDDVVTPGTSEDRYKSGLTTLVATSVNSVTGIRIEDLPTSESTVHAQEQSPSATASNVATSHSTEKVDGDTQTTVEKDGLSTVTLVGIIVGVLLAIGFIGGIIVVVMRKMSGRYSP
Procedure: (§1) Reactivity of the anti-podoplanin antibodies (LpMab-2, LpMab-3, LpMab-7, and LpMab-9) with a podoplanin expression strain was studied by flow cytometry. […] The reaction products were each reacted further with an anti-mouse IgG-FITC antibody (product of Life Technologies) at 4° C. for 30 minutes. As a negative control, only the secondary antibody of each of them was used. Fluorescence intensity was measured using EC800 (product of Sony).

[3] = target: T3, human podoplanin on seminoma tissue (paraffin section) (human, UniProt Q86YL7 23-162); assay: immunohistostaining of paraffin sections (FIG. 8)
T3 chain: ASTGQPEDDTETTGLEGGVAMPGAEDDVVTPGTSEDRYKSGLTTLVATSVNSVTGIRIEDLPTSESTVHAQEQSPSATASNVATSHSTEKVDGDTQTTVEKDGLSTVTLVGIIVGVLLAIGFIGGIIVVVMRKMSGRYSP
Procedure: (§2) Various paraffin sections were deparaffined in xylene and ethanol solutions. Antigen activation operation was not performed. The endogenous peroxidase was inactivated with 3% H₂O₂. Blocking was performed at room temperature for 10 minutes with SuperBlock (product of Thermo Fisher) and the primary antibody was reacted at room temperature for one hour. After amplification using a LSAB kit (product of Dako), color was developed using DAB (product of Dako).
(§3) LpMab-23 is a cancer cell-specific antibody. […] LpMab-7 used as a positive control reacted with both cancer cells and lymphatic epithelial cells.

[4] = target: T4, human podoplanin on esophageal squamous cell cancer tissue (paraffin section) (human, UniProt Q86YL7 23-162); assay: immunohistostaining of paraffin sections (FIG. 8)
T4 construct: also called esophagus squamous cell cancer
T4 chain: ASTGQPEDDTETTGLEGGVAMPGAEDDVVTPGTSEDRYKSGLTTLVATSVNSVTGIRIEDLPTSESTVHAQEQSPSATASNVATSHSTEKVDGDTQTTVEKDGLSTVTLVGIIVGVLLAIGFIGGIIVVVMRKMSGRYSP
Procedure: as §2, §3

[5] = target: T5, human podoplanin on lung squamous cell cancer tissue (paraffin section) (human, UniProt Q86YL7 23-162); assay: immunohistostaining of paraffin sections (FIG. 8)
T5 chain: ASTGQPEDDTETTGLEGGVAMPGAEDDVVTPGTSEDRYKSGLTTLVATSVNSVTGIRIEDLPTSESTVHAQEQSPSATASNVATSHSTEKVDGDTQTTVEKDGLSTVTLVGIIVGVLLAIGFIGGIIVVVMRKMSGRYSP
Procedure: as §2, §3

[6] = target: T6, human podoplanin on glioblastoma tissue (paraffin section) (human, UniProt Q86YL7 23-162); assay: immunohistostaining of paraffin sections (FIG. 8)
T6 chain: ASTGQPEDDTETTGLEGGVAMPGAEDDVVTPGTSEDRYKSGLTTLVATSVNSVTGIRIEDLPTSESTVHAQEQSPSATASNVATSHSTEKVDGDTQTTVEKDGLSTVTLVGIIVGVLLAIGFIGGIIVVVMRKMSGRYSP
Procedure: as §2, §3

[7] = target: T7, human podoplanin on oral cancer cells HSC3/hPDPN (human, UniProt Q86YL7 23-162); assay: flow cytometry on HSC3/hPDPN cells, antibody 1 µg/ml
T7 construct: Podoplanin gene expression strain; also called oral cancer cell line
T7 chain: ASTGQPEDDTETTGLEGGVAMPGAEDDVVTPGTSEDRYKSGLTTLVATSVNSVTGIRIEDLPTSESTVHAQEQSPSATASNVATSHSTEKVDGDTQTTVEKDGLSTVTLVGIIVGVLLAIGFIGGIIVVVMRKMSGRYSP
Procedure: as §1

[8] = target: T8, human podoplanin on lung squamous cell cancer cells RERF-LC-AI-hPDPN (human, UniProt Q86YL7 23-162); assay: flow cytometry on RERF-LC-AI-hPDPN cells, antibody 1 µg/ml
T8 construct: Podoplanin gene expression strain
T8 chain: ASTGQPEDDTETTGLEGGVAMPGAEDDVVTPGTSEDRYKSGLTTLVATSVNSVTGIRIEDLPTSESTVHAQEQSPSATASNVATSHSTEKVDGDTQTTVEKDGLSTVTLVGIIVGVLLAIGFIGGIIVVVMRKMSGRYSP
Procedure: as §1

[9] = target: T9, human podoplanin on lymphatic endothelial cells (human, UniProt Q86YL7 23-162); assay: flow cytometry on lymphatic endothelial cells, antibody 1 µg/ml
T9 construct: Normal cells; cultured cells in flow cytometry, cells in paraffin sections in immunohistostaining (see assay of each row); also called lymphatic epithelial cells; lymphatic cells
T9 chain: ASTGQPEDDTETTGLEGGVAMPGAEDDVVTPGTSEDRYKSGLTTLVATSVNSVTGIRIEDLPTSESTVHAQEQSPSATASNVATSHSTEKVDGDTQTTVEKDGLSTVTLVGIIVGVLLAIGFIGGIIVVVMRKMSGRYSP
Procedure: as §1

[10] = target: T10, human podoplanin on mesothelial cells Met-5A (human, UniProt Q86YL7 23-162); assay: flow cytometry on Met-5A cells, antibody 1 µg/ml
T10 construct: Podoplanin of the cell line itself; also called normal mesothelial cells; normal epithelial cell line (Met-5A)
T10 chain: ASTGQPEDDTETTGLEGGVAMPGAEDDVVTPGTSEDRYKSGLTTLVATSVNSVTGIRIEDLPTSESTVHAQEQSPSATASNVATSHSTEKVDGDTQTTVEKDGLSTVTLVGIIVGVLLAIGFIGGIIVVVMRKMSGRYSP
Procedure: as §1

[11] = target: T11, human podoplanin on malignant mesothelioma cells Y-MESO14-hPDPN (human, UniProt Q86YL7 23-162); assay: flow cytometry on Y-MESO14-hPDPN cells, antibody 1 µg/ml
T11 construct: Podoplanin gene expression strain
T11 chain: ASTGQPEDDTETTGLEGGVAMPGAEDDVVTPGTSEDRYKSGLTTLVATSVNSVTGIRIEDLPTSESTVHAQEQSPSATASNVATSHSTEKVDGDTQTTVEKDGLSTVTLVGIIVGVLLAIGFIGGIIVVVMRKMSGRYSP
Procedure: as §1

[12] = target: T12, human podoplanin on testicular tumor cells (paraffin section) (human, UniProt Q86YL7 23-162); assay: immunohistostaining of a testicular tumor paraffin section (FIG. 4B)
T12 construct: also called tumor portion of testicular tumor
T12 chain: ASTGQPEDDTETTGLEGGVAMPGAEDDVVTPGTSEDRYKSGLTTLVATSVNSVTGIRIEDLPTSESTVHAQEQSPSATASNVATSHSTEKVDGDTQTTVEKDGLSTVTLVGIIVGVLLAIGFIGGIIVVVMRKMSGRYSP
Procedure: (§4) Various paraffin sections were deparaffined in xylene and ethanol solutions. The resulting sections were autoclaved for 20 minutes using an antigen activator reagent (citrate buffer (pH 6.0): product of Dako). Endogenous peroxidase was inactivated with 3% H₂O₂. After blocking at room temperature for 10 minutes with SuperBlock (product of Thermo Fisher), a primary antibody was reacted at room temperature for one hour. After amplification using a LSAB kit (product of Dako), color was developed using DAB (product of Dako).
(§5) LpMab-2 is a tumor-specific antibody. […] LpMab-7 reacted with both (FIG. 4B), which coincided with the data of flow cytometry. LpMab-2 reacted with neither normal alveolar epithelial cells nor lymphatic cells (FIG. 4C). The LpMab-7 on the other hand stained alveolar epithelial cells and lymphatic vessel (FIG. 4D).

[13] = target: T13, synthetic peptide of human podoplanin from position 69 to position 88 (human); assay: ELISA on synthetic peptides
T13 peptide: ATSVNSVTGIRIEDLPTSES

[14] = target: T14, human podoplanin on normal alveolar epithelial cells (paraffin section) (human, UniProt Q86YL7 23-162); assay: immunohistostaining of a normal lung paraffin section (FIG. 4D)
T14 construct: also called normal lung
T14 chain: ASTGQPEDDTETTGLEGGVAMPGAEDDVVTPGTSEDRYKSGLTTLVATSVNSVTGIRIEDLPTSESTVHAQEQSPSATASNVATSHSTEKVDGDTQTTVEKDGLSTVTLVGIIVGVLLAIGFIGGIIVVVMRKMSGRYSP
Procedure: as §4, §5

[15] = target: T1, human podoplanin on glioblastoma cells …; assay: flow cytometry on LN319 cells, antibody 1 µg/ml
Procedure: as §1

Measured: binding result

B1: chLpMab-3 (antibody, human IgG1, kappa, V domains shown)
VH: EVQLVESGGGLVKPGGSLKLSCAASGFTFTRYAMSWVRQTPEKRLEWVATISNGGSYTYYLDSVKGRFTLSRDNAKNTLYLQMSSLRSEDTAMYYCARREGGQAGPAWFVYWGQGTLVTVSA
VL: DIVMTQSPSSLAMSVGQKVTMNCKSSQSLLNSSNQKNYLAWYQQKPGQSPKLLVYFASTRESGVPDRFIGSGSGTDFTLTISSAQAEDLADYFCQQYYSTPPTFGAGTKLELKR
notes: culture supernatant used; also called human chimeric LpMab-3
binds: [1]

B2: LpMab-7 (antibody)
heavy: DVQLVESGGGLVQPGGSRKLSCAASGFTFSGFGMHWVRQAPEKGLEWVAYISSVSSRIYYADTVKGRFTISRDNPKNTLFLQMTSLRSEDTAMYYCAREQTGPAWFAYWGQGTLVTVSAAKTTPPSVYPLAPGSAAQTNSMVTLGCLVKGYFPEPVTVTWNSGSLSSGVHTFPAVLQSDLYTLSSSVTVPSSTWPSETVTCNVAHPASSTKVDKKIVPRDCGCKPCICTVPEVSSVFIFPPKPKDVLTITLTPKVTCVVVDISKDDPEVQFSWFVDDVEVHTAQTQPREEQFNSTFRSVSELPIMHQDWLNGKEFKCRVNSAAFPAPIEKTISKTKGRPKAPQVYTIPPPKEQMAKDKVSLTCMITDFFPEDITVEWQWNGQPAENYKNTQPIMDTDGSYFVYSKLNVQKSNWEAGNTFTCSVLHEGLHNHHTEKSLSHSPGK
light: DVLMTQTPLSLPVSLGDQASISCRSSRNIVQSTGNTYLEWYLQKPGQSPKLLIFKVSNRFSGVPDRFSGSGSGTDFTLKISRVEAEDLGVYYCFQGSHVPPWTFGGGTKLEIKRADAAPTVSIFPPSSEQLTSGGASVVCFLNNFYPKDINVKWKIDGSERQNGVLNSWTDQDSKDSTYSMSSTLTLTKDEYERHNSYTCEATHKTSTSPIVKSFNRNEC
notes: Mouse IgG1, kappa, from hybridoma; Entries may hold the signal peptide
binds: [2] | [3] | [4] | [5] | [6] | [7] | [8] | [9] | [10] | [11] | [12] | [13] | [14] | [15]

B3: rLpMab-7 (antibody, mouse IgG1, kappa)
heavy: DVQLVESGGGLVQPGGSRKLSCAASGFTFSGFGMHWVRQAPEKGLEWVAYISSVSSRIYYADTVKGRFTISRDNPKNTLFLQMTSLRSEDTAMYYCAREQTGPAWFAYWGQGTLVTVSAAKTTPPSVYPLAPGSAAQTNSMVTLGCLVKGYFPEPVTVTWNSGSLSSGVHTFPAVLQSDLYTLSSSVTVPSSTWPSETVTCNVAHPASSTKVDKKIVPRDCGCKPCICTVPEVSSVFIFPPKPKDVLTITLTPKVTCVVVDISKDDPEVQFSWFVDDVEVHTAQTQPREEQFNSTFRSVSELPIMHQDWLNGKEFKCRVNSAAFPAPIEKTISKTKGRPKAPQVYTIPPPKEQMAKDKVSLTCMITDFFPEDITVEWQWNGQPAENYKNTQPIMDTDGSYFVYSKLNVQKSNWEAGNTFTCSVLHEGLHNHHTEKSLSHSPGK
light: DVLMTQTPLSLPVSLGDQASISCRSSRNIVQSTGNTYLEWYLQKPGQSPKLLIFKVSNRFSGVPDRFSGSGSGTDFTLKISRVEAEDLGVYYCFQGSHVPPWTFGGGTKLEIKRADAAPTVSIFPPSSEQLTSGGASVVCFLNNFYPKDINVKWKIDGSERQNGVLNSWTDQDSKDSTYSMSSTLTLTKDEYERHNSYTCEATHKTSTSPIVKSFNRNEC
notes: Full-length H and L chain of LpMab-7 expressed in CHO cells; also called recombinant LpMab-7
binds: [1]

B4: chLpMab-7 (antibody, human IgG1, kappa)
heavy: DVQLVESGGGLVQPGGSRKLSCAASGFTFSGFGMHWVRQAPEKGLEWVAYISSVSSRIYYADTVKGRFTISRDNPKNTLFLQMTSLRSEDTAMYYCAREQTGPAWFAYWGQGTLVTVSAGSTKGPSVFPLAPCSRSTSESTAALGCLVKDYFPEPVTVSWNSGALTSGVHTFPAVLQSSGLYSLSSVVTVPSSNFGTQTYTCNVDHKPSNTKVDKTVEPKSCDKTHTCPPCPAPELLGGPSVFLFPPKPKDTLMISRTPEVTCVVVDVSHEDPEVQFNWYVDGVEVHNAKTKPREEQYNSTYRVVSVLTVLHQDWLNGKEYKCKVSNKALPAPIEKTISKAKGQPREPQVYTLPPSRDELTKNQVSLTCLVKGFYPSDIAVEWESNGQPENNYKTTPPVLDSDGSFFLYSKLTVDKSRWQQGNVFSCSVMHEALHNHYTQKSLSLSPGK
light: DVLMTQTPLSLPVSLGDQASISCRSSRNIVQSTGNTYLEWYLQKPGQSPKLLIFKVSNRFSGVPDRFSGSGSGTDFTLKISRVEAEDLGVYYCFQGSHVPPWTFGGGTKLEIKRADAAPTVSIFPPSSEQLTSGGASVVCFLNNFYPKDINVKWKIDGSERQNGVLNSWTDQDSKDSTYSMSSTLTLTKDEYERHNSYTCEATHKTSTSPIVKSFNRNEC
notes: culture supernatant used; also called human chimeric LpMab-7
binds: [1]

B5: chLpMab-23 (antibody, human IgG1, kappa, V domains shown)
VH: QVQLKESGPGLVAPSQSLSITCTVSGFSVTSYGIHWVRQPPGKGLEWLGVIWTSGNTNYNSALMSRLSISRDNSKSQVFLKMNSLQTDDTAMYYCAREDYYGYAMDYWGQGTSVTVSS
VL: not shown
notes: Variable regions of LpMab-23 with human IgG1 constant region; Culture supernatant used; also called human chimeric LpMab-23 antibody
binds: [1]
